Measured values taken from patent US20200255478A1 (ALMIRALL S A, published 2020).
Positions of bridges follow the written chain, without caps; N, C: chain ends. Non-standard residues stand in square brackets, D forms with d. Primed or numbered codes have the meaning given here. *: point of attachment. (pyridine)3,5‑diyldimethylene = -CH2-(pyridine-3,5-diyl)-CH2- bridge between the two Cys sulfurs; (3,3-oxetanediyl)dimethylene = -CH2-(oxetane-3,3-diyl)-CH2- bridge between the two Cys sulfurs; (1,2-phenylenediyl)dimethylene = -CH2-(1,2-phenylene)-CH2- bridge between the two Cys sulfurs; Pro(4S-NH2) = N[C@@H]1CN[C@H](C(=O)O)C1; Stearoyl = CCCCCCCCCCCCCCCCCC(=O)*; Palmitoyl = CCCCCCCCCCCCCCCC(=O)*; Nonadecanoyl′ = not defined here; Myristoyl = CCCCCCCCCCCCCC(=O)*; Thz = O=C(O)[C@@H]1CSCN1; Dodecyl = CCCCCCCCCCCC*; βAla = NCCC(=O)O

Target: T1, Keap1-Maltose Binding Protein (MBP tag) (UniProt Q14145 321-609, limits assumed)
T1 construct: also called Keap1-MBP; Keap-MBP
T1 sequence (Q14145 321-609 limits assumed): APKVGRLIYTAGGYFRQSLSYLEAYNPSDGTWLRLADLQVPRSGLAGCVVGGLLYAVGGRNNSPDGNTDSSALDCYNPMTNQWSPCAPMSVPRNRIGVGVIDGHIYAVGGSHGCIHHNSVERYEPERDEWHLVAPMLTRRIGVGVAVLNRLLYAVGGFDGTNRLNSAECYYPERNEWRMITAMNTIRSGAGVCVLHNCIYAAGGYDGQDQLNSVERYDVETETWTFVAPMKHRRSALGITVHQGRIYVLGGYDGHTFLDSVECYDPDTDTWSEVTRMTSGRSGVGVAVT
Experiment: TR-FRET competition vs ETGE-biotin; grade band per paragraph 615

IC50	Binder
< 1 nM	cyclo([Pro(4S-NH2)](Stearoyl)QCD[Thz]ETGECL[dP]) (linker 3-10 via (1,3-phenylenediyl)dimethylene)
< 1 nM	cyclo([Pro(4S-NH2)](Nonadecanoyl′)QCDPETGECL[dP]) (linker 3-10 via (1,2-phenylenediyl)dimethylene)
< 1 nM	cyclo([Pro(4S-NH2)](Stearoyl)QCD[Thz]ETGECL[dP]) (linker 3-10 via (1,2-phenylenediyl)dimethylene)
< 1 nM	cyclo([Pro(4S-NH2)](Arachidyl)QCD[Thz]ETGECL[dP]) (linker 3-10 via (3,3-oxetanediyl)dimethylene)
< 1 nM	cyclo([Pro(4S-NH2)](oleyl)QCDPETGECL[dP]) (linker 3-10 via (1,2-phenylenediyl)dimethylene)
< 1 nM	cyclo([Pro(4S-NH2)](Myristoyl)QCDPETGECL[dP]) (linker 3-10 via (1,2-phenylenediyl)dimethylene)
< 1 nM	cyclo([Pro(4S-NH2)](Stearoyl)QCD[Thz]ETGECL[dP]) (linker 3-10 via (3,3-oxetanediyl)dimethylene)
< 1 nM	H-LQCDAETGECLP-OH (linker 3-10 via (1,3-phenylenediyl)dimethylene) [{[H-Leu-Gln-Cys(&1)-Asp-Ala-Glu-Thr-Gly-Glu-Cys(&2)-Leu-Pro-OH][&1(1,3-phenylenediyl)dimethylene&2]}]
< 1 nM	cyclo([Pro(4S-NH2)](Ac)QCDPETGECL[dP]) (linker 3-10 via (1,2-phenylenediyl)dimethylene)
< 1 nM	cyclo([Pro(4S-NH2)](Stearoyl)QCDPETGECL[dP]) (linker 3-10 via (1,3-phenylenediyl)dimethylene)
< 1 nM	cyclo([Pro(4S-NH2)](behenyl)QCDPETGECL[dP]) (linker 3-10 via (1,2-phenylenediyl)dimethylene)
< 1 nM	cyclo([Pro(4S-NH2)](Dodecyl)QCDPETGECL[dP]) (linker 3-10 via (1,2-phenylenediyl)dimethylene)
< 1 nM	cyclo([Pro(4S-NH2)](arachidyl)QCDPETGECL[dP]) (linker 3-10 via (1,2-phenylenediyl)dimethylene)
< 1 nM	Stearoyl-[βAla]KQCDPETGECLP-NH2 (linker 4-11 via (1,2-phenylenediyl)dimethylene)
< 1 nM	Stearoyl-[βAla]KKCDPETGECLP-NH2 (linker 4-11 via (1,2-phenylenediyl)dimethylene)
< 1 nM	cyclo(LQCDEETGECLP) (linker 3-10 via (1,3-phenylenediyl)dimethylene) [{[&1Leu-Gln-Cys(&2)-Asp-Glu-Glu-Thr-Gly-Glu-Cys(&3)-Leu-Pro&1][&2(1,3-phenylenediyl)dimethylene&3]}]
< 1 nM	cyclo([Pro(4S-NH2)](Palmitoyl)QCDPETGECL[dP]) (linker 3-10 via (1,2-phenylenediyl)dimethylene)
< 1 nM	cyclo([Pro(4S-NH2)](α‑linolenyl)QCDPETGECL[dP]) (linker 3-10 via (1,2-phenylenediyl)dimethylene)
< 1 nM	Stearoyl-[βAla]LQCDPETGECLP-NH2 (linker 4-11 via (pyridine)3,5‑diyldimethylene)
< 1 nM	cyclo([Pro(4S-NH2)](Arachidyl)QCD[Thz]ETGECL[dP]) (linker 3-10 via (1,2-phenylenediyl)dimethylene)
< 1 nM	cyclo([Pro(4S-NH2)](Stearoyl)QCDPETGECL[dP]) (linker 3-10 via (1,2-phenylenediyl)dimethylene)
< 1 nM	Stearoyl-KQCDPETGECL[dP] (lactam 1-C; linker 3-10 via (1,2-phenylenediyl)dimethylene)
< 1 nM	cyclo(K(Stearoyl)QCDPETGECL[dP]) (linker 3-10 via (1,2-phenylenediyl)dimethylene)
< 1 nM	cyclo([Pro(4S-NH2)](Stearoyl)QCDRETGECL[dP]) (linker 3-10 via (1,2-phenylenediyl)dimethylene)
< 1 nM	Stearoyl-[βAla]LLCDPETGECLL-NH2 (linker 4-11 via (3,3-oxetanediyl)dimethylene)
< 1 nM	cyclo([Pro(4S-NH2)](Arachidyl)QCDPETGECL[dP]) (linker 3-10 via (3,3-oxetanediyl)dimethylene)
